Measured values reported in patent US9133449B2, “Mutant pyrrolysyl-tRNA synthetase, and method for production of protein having non-natural amino acid integrated therein by using the same” (priority 2007, dated 2015).

Legend:
[1] = test system: amber stop codon in the chloramphenicol acetyltransferase (CAT) gene, E. coli DH10B cells; assay: Positive selection by suppression of amber stop codon in CAT gene (chloramphenicol resistance); type: cell-based
Method: The PylRS mutant library was first subjected to a positive selection based on suppression of an amber stop codon located at a nonessential position in the chloramphenicol acetyltransferase (CAT) gene. […] Then the surviving cells were grown in the presence of chloramphenicol and the absence of Boc-Lys.

tRNA^Pyl = assay: Aminoacylation assay of PylRS mutants / PylRS(c270); type: biochemical, Methanosarcina mazei
Method: The full length PylRS mutant was overexpressed in E. coli cells, and then purified using HisTrap column (Amersham Biosciences Inc.). Aminoacylation reaction was performed at ca. 37 degrees Celsius for 1 h. The reaction solution for aminoacylation comprises 2.83 μM of purified PylRS derived from M. mazei (or 9 μM of PylRS (c270)), 10 mM of MgCl2, 2 mM of ATP, 4 mM of DTT, 2.11 μM of transcript of M. mazei-derived tRNA^Pyl, and adequate amount of concentrated solution of a variety of amino acids dissolved in 100 mM of HEPES buffer (pH 7.2). Acid-urea polyacrylamide gel electrophoresis was used to analyze whether tRNA had been aminoacylated or not.

B1: PylRS mutant (Y384F) (protein, UniProt Q8PWY1 1-454, looked up, variant Y384F)
Pyrrolysine--tRNA ligase: MDKKPLNTLISATGLWMSRTGTIHKIKHHEVSRSKIYIEMACGDHLVVNNSRSSRTARALRHHKYRKTCKRCRVSDEDLNKFLTKANEDQTSVKVKVVSAPTRTKKAMPKSVARAPKPLENTEAAQAQPSGSKFSPAIPVSTQESVSVPASVSTSISSISTGATASALVKGNTNPITSMSAPVQASAPALTKSQTDRLEVLLNPKDEISLNSGKPFRELESELLSRRKKDLQQIYAEERENYLGKLEREITRFFVDRGFLEIKSPILIPLEYIERMGIDNDTELSKQIFRVDKNFCLRPMLAPNLYNYLRKLDRALPDPIKIFEIGPCYRKESDGKEHLEEFTMLNFCQMGSGCTRENLESIITDFLNHLGIDFKIVGDSCMVFGDTLDVMHGDLELSSAVVGPIPLDREWGIDKPWIGAGFGLERLLKVKHDFKNIKRAARSESYYNGISTNL
[1]; in the absence of Boc-Lys
  concentration of chloramphenicol at which cells survived: less than 25 μg/ml
[1]; in the presence of Boc-Lys (1 mM)
  concentration of chloramphenicol at which cells survived: 150 µg/mL

B2: PylRS(c270) mutant (Y306A) (protein, UniProt Q8PWY1 185-454, looked up, variant Y306A)
chain: ASAPALTKSQTDRLEVLLNPKDEISLNSGKPFRELESELLSRRKKDLQQIYAEERENYLGKLEREITRFFVDRGFLEIKSPILIPLEYIERMGIDNDTELSKQIFRVDKNFCLRPMLAPNLANYLRKLDRALPDPIKIFEIGPCYRKESDGKEHLEEFTMLNFCQMGSGCTRENLESIITDFLNHLGIDFKIVGDSCMVYGDTLDVMHGDLELSSAVVGPIPLDREWGIDKPWIGAGFGLERLLKVKHDFKNIKRAARSESYYNGISTNL
tRNA^Pyl; substrate Z-Lys, compared with wild-type PylRS
  esterification of tRNA^Pyl with Z-Lys: much more efficiently than the wild-type PylRS

B3: PylRS(c270): M. mazei PylRS of which the 184 amino acids from the N terminus were truncated (protein, UniProt Q8PWY1 185-454, looked up, fragment)
chain: ASAPALTKSQTDRLEVLLNPKDEISLNSGKPFRELESELLSRRKKDLQQIYAEERENYLGKLEREITRFFVDRGFLEIKSPILIPLEYIERMGIDNDTELSKQIFRVDKNFCLRPMLAPNLYNYLRKLDRALPDPIKIFEIGPCYRKESDGKEHLEEFTMLNFCQMGSGCTRENLESIITDFLNHLGIDFKIVGDSCMVYGDTLDVMHGDLELSSAVVGPIPLDREWGIDKPWIGAGFGLERLLKVKHDFKNIKRAARSESYYNGISTNL
tRNA^Pyl; substrate pyrrolysine
  aminoacylation activity with pyrrolysine: may esterify
